Laboratory results published in patent US20230174651A1.

Key:
[1] = target: CD79b CAR with CD8α hinge as the spacer; test: flow cytometry, Jurkat cells transduced with construct CAR-4, fluorescently labelled second antibody; gate set on untransduced (UTD) cells
Target sequence (P01732 138-182): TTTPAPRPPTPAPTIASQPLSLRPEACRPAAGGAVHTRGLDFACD

[2] = target: CD79b CAR with CD8α hinge as the spacer; test: flow cytometry, Jurkat cells transduced with construct CAR-1, fluorescently labelled second antibody; gate set on untransduced (UTD) cells
[3] = target: CD79b CAR with CD8α hinge as the spacer; test: flow cytometry, Jurkat cells transduced with construct CAR-2, fluorescently labelled second antibody; gate set on untransduced (UTD) cells
[4] = target: CD79b CAR with CD8α hinge as the spacer; test: flow cytometry, Jurkat cells transduced with construct CAR-3, fluorescently labelled second antibody; gate set on untransduced (UTD) cells
[5] = target: CD79b CAR with CD8α hinge as the spacer; test: flow cytometry, Jurkat cells transduced with construct CAR-6, fluorescently labelled second antibody; gate set on untransduced (UTD) cells
[6] = target: CD79b CAR with CD8α hinge as the spacer; test: flow cytometry, Jurkat cells transduced with construct CAR-5, fluorescently labelled second antibody; gate set on untransduced (UTD) cells

% positive (CAR+ Jurkat cells) [1]: 54.1%
% positive (CAR+ Jurkat cells) [2]: 13%
% positive (CAR+ Jurkat cells) [3]: 41.7%
% positive (CAR+ Jurkat cells) [4]: 15.9%
% positive (CAR+ Jurkat cells) [5]: 84%
% positive (CAR+ Jurkat cells) [6]: 84.5%
B1: mouse FC version of CD8B575 (purified from mouse hybridoma clone) (antibody, V domains shown)
VH: QVQLQQSGGGLVQPGGSLKLSCAASGFTFSNYYMSWARQTPEKRLEWVAYISNDGDATYYPDSVKGRFTISRDNAKNTLYLQMSSLKSEDTAMYYCTREDYYSDYWFASWGQGTTVTVSS
VL: DIVMTQSQKFMSTTIEDRVSITCKASQNVGTAVAWYQQKPGQSPKLLIYSTSNRYTGVPDRFTGSGSGTDFTLTISNIQSEDLADYFCQQYSSYPLTFGGGTKLEIK
